We go through four molecules from patent US20230083273A1 (TRUSTEES OF INDIANA UNIVERSITY, published 2023).

Series [1] deals with T1, HBV Cp149His monomer (Cp149-6xHis half-dimer) (hepatitis B virus (HBV), UniProt P03147 1-149).
T1 construct: also called Cp149His6; CpHis monomer
Nature of the series: native mass spectrometry of the purified co-expressed protein; also a single SEC peak at the dimer position and about equal SDS-PAGE bands.

Series [2] deals with T2, HBV Cp150 homodimer (hepatitis B virus (HBV), UniProt P03147 1-149).
T2 chain: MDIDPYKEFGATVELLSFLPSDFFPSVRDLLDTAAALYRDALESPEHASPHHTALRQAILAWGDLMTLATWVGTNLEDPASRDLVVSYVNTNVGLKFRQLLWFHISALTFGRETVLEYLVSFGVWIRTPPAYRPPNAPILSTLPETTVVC
The series can be described thus: co-assembly at 300 mM NaCl, SEC.

Series [3] concerns the target T2, HBV Cp150 homodimer. Nature of the series: negative-stain EM.
Series [4] deals with the molecule itself. The series can be described thus: Ni2+-driven assembly (10 uM heterodimer, 100 uM NiCl2, low ionic strength); SEC, CDMS, negative-stain EM.
Series [5] concerns the molecule itself. Nature of the series: SEC of capsid assembly at 300 mM NaCl.

Substitutions are numbered along the chain they refer to. Names and notes keep the numbering of the source.

B1: HBV Cp149Y132A monomer (Cp149-Y132A half-dimer) (other)
chain: MDIDPYKEFGATVELLSFLPSDFFPSVRDLLDTAAALYRDALESPEHCSPHHTALRQAILCWGDLMTLATWVGTNLEDPASRDLVVSYVNTNVGLKFRQLLWFHISCLTFGRETVLEYLVSFGVWIRTPPAARPPNAPILSTLPETTVV
Consider B1, for which the binding result in series [1] is listed as “binds”.

B2: Cp149HisCp149Y132A hexamer (hexamer of heterodimers assembled with Ni2+) (other)
chain 1: MDIDPYKEFGATVELLSFLPSDFFPSVRDLLDTAAALYRDALESPEHCSPHHTALRQAILCWGDLMTLATWVGTNLEDPASRDLVVSYVNTNVGLKFRQLLWFHISCLTFGRETVLEYLVSFGVWIRTPPAYRPPNAPILSTLPETTVVHHHHHH
chain 2: B1 chain
notes: also called heterodimer hexamer; hexamers
On to B2, for which, in the series with HBV Cp150 homodimer [2], the binding result was “binds”.

B3: heterodimer Cp149HisCp149Y132A (other)
chain 1: B2 chain 1
chain 2: B1 chain
notes: also called Cp149His6Cp149Y132A; asymmetric heterodimer
Take B3: the binding result (with HBV Cp150 homodimer [3]; in series [4]) was “binds” in each case.

B4: HBV Cp149 homodimer (wild-type assembly domain) (other)
chain: B1 chain with A132Y
notes: also called wild-type homodimer Cp149
With B4, in series [5], the binding result is given as “binds”.
